Experimental findings from patent publication US20220290113 are described below.

The data set relates to Nme2Cas9 (Neisseria meningitidis). Description: cell_activity. To be noted: PAM N4CC; HEK293T, TIDE.

Take “GCCUCCCUGCAGGGCUGCUCCC / GCCTCCCTGCAGGGCTGCTCCCCAGCCCAA / TTGGGCTGGGGAGCAGCCCTGCAGGGAGGC [TS6 sgRNA spacer ; TS6 LINC01588 target + PAM]”: the activity was determined as 20 % indels.
“GGAGUCGCCAGAGGCCGGUGGUGG / GGAGTCGCCAGAGGCCGGTGGTGGATTTCCTC / GAGGAAATCCACCACCGGCCTCTGGCGACTCC [TS16 sgRNA spacer ; TS16 LINC01588 target + PAM]” returned an activity of 28 % indels.
Sequence “GUGUGUCCCUCUCCCCACCCGUCC / GTGTGTCCCTCTCCCCACCCGTCCCTGTCCGG / CCGGACAGGGACGGGTGGGGAGAGGGACACAC [TS47 sgRNA spacer ; TS47 VEGFA target + PAM]” registered an activity of 23.1 % indels.
